Test results as given in patent US20160108381A1, “DNA POLYMERASES AND MUTANTS THEREOF” (LIFE TECHNOLOGIES CORPORATION, priority 2001, published 2016).
Marks after values point to notes of the source that are not given here.

Key:
Test in all cases: Steady-state kinetics, DNA- and RNA-dependent polymerase activity
[1] = substrate: Cc1cn([C@H]2C[C@H](O)[C@@H](COP(=O)(O)OP(=O)(O)OP(=O)(O)O)O2)c(=O)[nH]c1=O; assay type: biochemical, Dictyoglomus thermophilum strain Rt46B.1; settings: 72 °C
Experimental: (§1) Purification of CA2, B.EA1, Rt41A, Dth, Tok13B, Tok7B, and Rt69B DNA polymerase. E. coli cells (BL21SI, Invitrogen Corporation, Carlsbad, Calif.) bearing the plasmid pET26B with the gene for CA2, B.EA1, Rt41A, or Dth DNA polymerase were grown in 2.8-1 Fembach flasks in LB broth containing no salt and 50 μg/ml kanamycin at 37° C. After the culture reached an A590 of 1.2, expression of DNA polymerase was induced with 0.3 M NaCl for 3 hr. Cells were harvested by centrifugation and stored at −70° C. E. coli cells (BL21AI) bearing the plasmid pET14B with the gene for Tok13B, Tok7B, or RT69B DNA polymerase were grown in 2.8-1 Fembach flasks in LB broth containing 50 μg/ml ampicillin at 37° C. After the culture reached an A590 of 1.0, expression of DNA polymerase was induced by the addition of 0.2% arabinose for 3 hr. Cells were harvested by centrifugation and stored at −70° C.
(§2) Steady-state kinetic measurements.

[2] = substrate: Cc1cn([C@H]2C[C@H](O)[C@@H](COP(=O)(O)OP(=O)(O)OP(=O)(O)O)O2)c(=O)[nH]c1=O; assay type: biochemical, Bacillus caldolyticus EA1.3; settings: 55 °C, mean ± SD
Experimental: as §1, §2

[3] = substrate: Nc1nc2c(ncn2[C@H]2C[C@H](O)[C@@H](COP(=O)(O)OP(=O)(O)OP(=O)(O)O)O2)c(=O)[nH]1; assay type: biochemical, Caldibacillus cellulovorans CompA.2; settings: other: Table 34, DNA template, 1.5 mM MgCl2, 55 °C per footnote *
Experimental: as §1, §2
(§3) The catalytic rate constant kcat and the Michaelis constant KM were determined for both the DNA-dependent and RNA-dependent polymerase activities for the polypeptides of the invention and these parameters were compared to those of Tne DNA polymerase enzyme and […]™ II reverse transcriptase. […]

[4] = substrate: Cc1cn([C@H]2C[C@H](O)[C@@H](COP(=O)(O)OP(=O)(O)OP(=O)(O)O)O2)c(=O)[nH]c1=O; assay type: biochemical, Caldibacillus cellulovorans CompA.2; settings: 55 °C, mean ± SD
Experimental: as §1, §2, §3

[5] = other: Table 40, (dA)270•(dT)40, dTTP
[6] = other: Table 40, (rA)250•(dT)30, dTTP

B1: Dictyoglomus thermophilum strain Rt46B.1 (Dth) DNA polymerase, SEQ ID NO:22 (Dictyoglomus thermophilum) (protein)
chain: MKYLLPTAAAGLLLLAAQPAMAMDIGINSDPKSLWDLFQENTEKESKRKILIIDGSSLIYRVYYALPPLKTKNGELTNALYGFIRILLKAVEDFNPDLVGVAFDRPEPTFRHVIYKEYKAKRPPMKDDLKAQIPWIREFLRLNDIPLLEEPGYEADDIIATIVNKYKDDLKYILSGDLDLLQLVSDKTFLIHPQKGITEFTIYDPKAVKDRFGVEPYKIPLYKVLVGDESDNIPGVNGIGPKKASKILEKISSVDEFKSKIKVLDSDLRELIEKNWNIIERNLELVTLKNIDKDLILKPFEIKRDEKVIDFLKRYELKSILQKLFPDLQEEENIEIKDVEEINFNEVEKEGYFAFKCLGDRAFEGISLSFKEGEGYFISPFDFNNEIRKKIENIISSENVKKIGSYIQRDLHFLNCKIKGDVFDVSLASYLLNPERQNHSLDILIGEYLNKTSFIPQKYAGYLFPLKSILEERIKNEGLEFVLYNIEIPLIPVLYSMEKWGIKVDKEYLKQLSDEFCERIKKLEEEIYELAGTRFNLNSPKQLSEVLFERLKLPSGKKGKTGYSTSSSVLQNLINAHPIVRKILQYRELYKLKSTYVDAIPNLVNPQTGRVHTKFNPTGTATGRISSSEPNLQNIPIKSEEGRKIRRAFVSEDGYFLVSLDYSQIELRIMAHLSQEPKLISAFQKGEDIHRRTASEIFGVPEEEVDDLLRSRAKAVNFGIIYGISSFGLSETVSITPEEAEKFIDSYFKHYPRVKLFIDKTIHEAREKLYVKTLFGRKRYIPEIKSINKQVRNAYERIAINAPIQGTAADIIKLAMIEIYKEIENKNLKSRILLQIHDELILEVPEEEMEFTPLMAKEKMEKVVELSVPLVVEISVGKNLAELK
kcat ([1]; other: Table 40, (dA)270•(dT)40, dTTP, mean ± SD): 39 ± 15 s⁻¹ | kcat ([1]; other: Table 40, (rA)250•(dT)40, dTTP): < 1 s⁻¹

B2: Bacillus caldolyticus EA1.3 (B.EA1) DNA polymerase, SEQ ID NO:20 ([Bacillus] caldolyticus) (protein)
chain: MKYLLPTAAAGLLLLAAQPAMAMGLKKKLVLIDGSSVAYRAFFALPLLHNDKGIHTNAVYGFTMMLNKILAEEEPTHMLVAFDAGKTTFRHEAFQEYKGGRQQTPPELSEQFPLLRELLRAYRIPAYELENYEADDIIGTLAARAEQEGFEVKVISGDRDLTQLASPHVTVDITKKGITDIEPYTPEAVREKYGLTPEQIVDLKGLMGDKSDNIPGVPGIGEKTAVKLLKQFGTVENVLASIDEIKGEKLKETLRQHREMALLSKKLAAIRRDAPVELSLDDIVYQGEDREKVVALFKELGFQSFLEKMESPSSEEEKPLAKMAFTLADRVTEEMLADKAALVVEVVEENYHDAPIVGIAVVNEHGRFFLRPETALADPQFVAWLGDETKKKSMFDSKRAAVALKWKGIELCGVSFDLLLAAYLLDPAQGVDDVAAAAKMKQYEAVRSDEAVYGKGAKRAVPDEPVLAEHLVRKAAAIWALERPFLDELRRNEQDRLLVELEQPLSSILAEMEFAGVKVDTKRLEQMGEELAEQLRTVEQRIYELAGQEFNINSPKQLGVILFEKLQLPVLKKTKTGYSTSADVLEKLAPYHEIVENILHYRQLGKLQSTYIEGLLKVVRPDTKKVHTIFNQALTQTGRLSSTEPNLQNIPIRLEEGRKIRQAFVPSESDWLIFAADYSQIELRVLAHIAEDDNLMEAFRRDLDIHTKTAMDIFQVSEDEVTPNMRRQAKAVNFGIVYGISDYGLAQNLNISRKEAAEFIERYFESFPGVKRYMENIVQEAKQKGYVTTLLHRRRYLPDITSRNFNVRSFAERMAMNTPIQGSAADIIKKAMIDLNARLKEERLQARLLLQVHDELILEAPKEEMERLCRLVPEVMEQAVTLRVPLKVDYHYGSTWYDAK
kcat [2, 5]: 73 ± 16 s⁻¹ | kcat [2, 6]: 43 ± 7 s⁻¹

B3: Caldibacillus cellulovorans CompA.2 (CA2) DNA polymerase, SEQ ID NO:16 ([Caldibacillus] cellulovorans) (protein)
chain: MKYLLPTAAAGLLLLAAQPAMAMGKLILVDGNSVANRAFYAVRLLSTRGGLHTNAVYGFANMLLKLIEEERPTHFLVAFDAGKATFRHREYEAYKAGRLQTPPELSEQFPYIRELVRAFGVASGELEEYEADDMIGTLAKRAEAEGVDTLVVTGDRDLLQLVSDRVTVALTRKGITETERYDPARIREEYGFDPDRIRDLKGLMGDASDNLPGVPGVGEKTALKLLRQYGSLESVLEHASEIAGKLGENLRAHADAARLSKRLATIDCAVPLQSGWDWLRLGEPDRAALASLLRQLEFKSLLKRLGLDGTSADADVDGVRSSARPADEKRPRAVAVAEEGVDVRCPDRPEEVEEALSRLEAAQSVVVEVTGDNPHDGEVRGVAWWDGHTAYFIPFERLVQSDMRPLADWLADARRPKRTHDSHRAEVALFWHGLAFRGTSFCTHIAAYLLDPTESRHTLADLSRRYGLPPVPEAEDVYGKGAKFKVPDRDTLARYVGRKAALVARLVPLLEADLAACGMRSLFYDLELPLSSELAVMETVGVRVDAAALAAYGEELREAAAKVEREIYELAGTTFNIGSTKQLGEILFDKLGLPVVKKTKTGYSTDADVLEELAPYHPIVEKILHYRQLTKLQSTYIEGLLKEIRPQTGKIHTYYQQTIAATGRLSSQFPNLQNIPIRLEEGRKIRKAFVPSEPGWLMLAADYSQIELRVLAHVSGDERLKEAFRTGMDIHTKTAMDVFGVSEDRVDARMRRQAKAVNFGIIYGISDFGLAQNLNISRKEAAEFIRQYFAVFSGVKAYRERIVEQARRDGYVTTLLGRRRYLPDINASNYNLRSFAERTAMNTPIQGTAADIIKTAMVRLTRRMRDVGLKSRMLLQVHDELVFEVPPDELDAMRELVTDVMESAVPLDVPLKVDVSWGADWYAAK
kcat [3]: 200* s−1 | kcat [4, 5]: 82 ± 9 s⁻¹ | kcat [4, 6]: 48 ± 9 s⁻¹
